B1: recombinant human NCAM2 FnIII1 domain (domain or fragment)
chain: SPYGVKIIELSQTTAKVSFNKPDSHGGVPIHHYQVDVKEVASEIWKIVRSHGVQTMVVLNNLEPNTTYEIRVAAVNGKGQGDYSKIEIFQTLPV
B2: recombinant human NCAM2 FnIII1-2 double domain (expressed in E. coli) (domain or fragment)
chain: SPYGVKIIELSQTTAKVSFNKPDSHGGVPIHHYQVDVKEVASEIWKIVRSHGVQTMVVLNNLEPNTTYEIRVAAVNGKGQGDYSKIEIFQTLPVREPSPPSIHGQPSSGKSFKLSITKQDDGGAPILEYIVKYRSKDKEDQWLEKKVQGNKDHIILEHLQWTMGYEVQITAANRLGYSEPTVYEFSMPPKPNIIKD

molecular target: FGFR1β (IIIc)/Fc chimera; assay: SPR; BIAcore 2000, 25 °C, 10 mM PBS pH 7.4; about 1000 RU FGFR1β (IIIc)/Fc and 750 RU human IgG1 Fc (control cell) immobilised on a CM4 chip by amine coupling; NCAM2 domains injected at 20-30 μl/min; steady state affinity fit, Kd roughly estimated

Row | Molecule | Kd [nM]
1 | NCAM2 FnIII1-2 domains expressed from P. pastoris (domain or fragment) | 400
2 | recombinant human NCAM2 FnIII2 domain (from UniProt O15394 592-693) (domain or fragment) | 4400
3 | B1 | 290
4 | B2 | 130

— publication PMC5997747
